Source: publication PMC3462482 (Nature structural & molecular biology, 2012)

Target: T1, PatGmac H618A (Prochloron sp., UniProt Q52QJ1 492-851, H618A)
T1 sequence: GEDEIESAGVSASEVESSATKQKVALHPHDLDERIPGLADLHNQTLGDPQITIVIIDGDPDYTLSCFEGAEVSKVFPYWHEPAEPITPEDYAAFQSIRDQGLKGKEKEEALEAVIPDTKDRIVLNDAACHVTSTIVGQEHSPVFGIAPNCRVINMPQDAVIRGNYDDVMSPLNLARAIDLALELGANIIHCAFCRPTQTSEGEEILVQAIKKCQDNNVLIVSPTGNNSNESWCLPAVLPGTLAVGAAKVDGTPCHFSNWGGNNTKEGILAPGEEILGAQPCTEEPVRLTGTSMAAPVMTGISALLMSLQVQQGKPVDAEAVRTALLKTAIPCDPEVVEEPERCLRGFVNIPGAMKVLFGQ
Test: crystal structure

VPAPIPFPAYDG [VPAPIPFPAYDG peptide (substrate mimic)]: binds.
